Assay results published in patent US20260028421A1 (JIANGSU HENGRUI PHARMACEUTICALS, published 2026).
Where two headings read alike, the source gives them in different places.

Experiments:
[1] = molecular target: T1, Human GUCY2C protein on cells (HCT116/hGUCY2C, HT-55, T84, LS1034, LS174T) (human, UniProt P25092 24-1073); assay: cell-based or functional assay
hGUCY2C ECD-His = molecular target: T2, hGUCY2C ECD-His (human, UniProt P25092 24-430); assay: ELISA, antigen on streptavidin plate
T2 construct: also called human GUCY2C protein
Experimental: In this test example, the binding activity of the GUCY2C-CD3 bispecific antibodies for human GUCY2C was detected by ELISA. The specific procedures are as follows:
The plate was coated by adding 100 ng of streptavidin (ACRO #STN-N5116) to the reaction wells and incubated overnight at 4° C. After the blocking with 1% BSA (PBS), 100 ng of hGUCY2C ECD-His was added, and the mixture was incubated at 37° C. for 1 h. After plate washing, the gradiently diluted antibody was added, and the mixture was incubated at 37° C. for 1 h. […] After plate washing, a substrate solution was added, and a stop solution was then added after sufficient color development to stop the reaction. The signal values at […] were read using a microplate reader.

[2] = molecular target: T1, Human GUCY2C protein on cells …; assay: cell-based or functional assay; remark: listed apart in the source
[3] = molecular target: T1, Human GUCY2C protein on cells …; assay: cell-based or functional assay; remark: listed apart in the source

B1: 146 L1H1-2 (bispecific antibody)
heavy 1: not shown
light 1: not shown
heavy 2: EFQLVQSGAEVKKPGASVKVSCKASGYSFTDYNMNWVRQAPGQRLEWMGLINPKYGTTNYNQKFKGRVTLTVDQSSSTAYMELSSLRSEDTAVYYCARDNYPAWFAYWGQGTTVTVSSGGGGSSGAPRFLTRPKASVVSVGKDATLSCQIVGNPFPQVSWEKDKQPVTAGVRFRLAQDGDLYRLKILDLQLSDSGQYVCRARNAHGEAFACLGLQVDAEADKTHTCPPCPAPEAAGGPSVFLFPPKPKDTLMISRTPEVTCVVVDVSHEDPEVKFNWYVDGVEVHNAKTKPREEQYNSTYRVVSVLTVLHQDWLNGKEYKCKVSNKALPAPIEKTISKAKGQPREPQVCTLPPSREEMTKNQVSLSCAVKGFYPSDIAVEWESNGQPENNYKTTPPVLDSDGSFFLVSKLTVDKSRWQQGNVFSCSVMHEALHNHYTQKSLSLSPGK
light 2: EIVLTQSPATLSLSPGERATLSCSASSSLNYMYWYQQKPGSSPRPWIYRTSQLASGVPARFSGSGSGTDYTLTISSLEPEDFAVYYCQQYHSYPPTFGGGTKVEIKGGGGSGIPPKIECLPIDISIDEGKVLTVASAFTGEPTPEVTWSTGGRKIHSQEQGRFHIENTDDSTTLTIKDVQKQDGGLYTLTLRNEFGSDSATVNIHIRSI
notes: GUCY2C-CD3, Format 2, CD3 arm S107E
[1]
  IC50 (nM), killing of HT-55(++) with PBMC: 0.56 nM
  IC50 (nM), killing of LS174T(+) with PBMC: 0.49 nM
  IC50 (nM), killing of LS1034(+++) with PBMC: 0.17 nM
hGUCY2C ECD-His
  EC50: 0.06 nM

B2: P3-C7 L7H1-3 (bispecific antibody)
heavy 1: not shown
light 1: DVVMTQTPLSLPVTPGEPASISCRSSQSLVHSNQNTYLHWYLQKPGQSPQLLIYKVSNRFSGVPDRFSGSGSRTDFTLKISRVEAEDVGVYYCSQSTHVPYTFGGGTKVEIKGGGGSGIPPKIECLPIDISIDEGKVLTVASAFTGEPTPEVTWSTGGRKIHSQEQGRFHIENTDDSTTLTIKDVQKQDGGLYTLTLRNEFGSDSATVNIHIRSI
heavy 2: not shown
light 2: not shown
[2]
  IC50 (nM), killing of LS174T with PBMC: 0.49 nM

B3: 81 L3H1-2 (N103QN106Q) (bispecific antibody)
heavy 1: not shown
light 1: not shown
heavy 2: EVQLVQSGAEVKKPGASVKVSCKASGYTFTDHNMNWVKQAPGQRLEWMGVMNPKFGTINYNQKFKDKATITRDTSASTAYMELSSLRSEDTAVYYCARDNYPNYFDYWGQGTTVTVSSGGGGSSGAPRFLTRPKASVVSVGKDATLSCQIVGNPFPQVSWEKDKQPVTAGVRFRLAQDGDLYRLKILDLQLSDSGQYVCRARNAHGEAFACLGLQVDAEADKTHTCPPCPAPEAAGGPSVFLFPPKPKDTLMISRTPEVTCVVVDVSHEDPEVKFNWYVDGVEVHNAKTKPREEQYNSTYRVVSVLTVLHQDWLNGKEYKCKVSNKALPAPIEKTISKAKGQPREPQVCTLPPSREEMTKNQVSLSCAVKGFYPSDIAVEWESNGQPENNYKTTPPVLDSDGSFFLVSKLTVDKSRWQQGNVFSCSVMHEALHNHYTQKSLSLSPGK
light 2: DIQLTQSPSFLSASPGDRVTITCSASSSVNYMYWYQQKPGSSPKSWIYRTSNLASGVPSRFSGSGSGTEYTLTISSLQPEDFATYYCQQYHDYPPTFGGGTKVEIKGGGGSGIPPKIECLPIDISIDEGKVLTVASAFTGEPTPEVTWSTGGRKIHSQEQGRFHIENTDDSTTLTIKDVQKQDGGLYTLTLRNEFGSDSATVNIHIRSI
[3]
  IC50 (nM), killing of LS174T with PBMC: 0.16 nM
